Laboratory results published in the supplement of paper PMC12042874.
± gives the uncertainty stated by the source.

Assay: amyloid nucleation score (Sup35N fusion, yeast selection) (log enrichment); library NNK1; higher = more nucleation; inactive = no reads after selection
In short: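 The nucleation score equals the log enrichment of output over input reads from DiMSum, centred on the mode score of non-aggregating sequences. It was computed only for sequences with 100 or more input reads. The reads came from Illumina sequencing of plasmid inserts from psi-negative yeast expressing Sup35N fused to peptides of 20 random codons, induced with 100 μM copper sulfate for 24 hours and grown 7 days at 30°C without adenine and uracil.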

Substance | amyloid nucleation score
FAEFKDICMRE | 0.978 ± 0.74
PYVGPLMNFYHSMGMWWMYN | inactive
GGIVLDTTHRVGYGRTSPCV | 0.289 ± 1.2
APEFFNSDRASIAKF | -0.558 ± 0.77
LDGVFNTTIATVNSFREYLM | 0.132 ± 0.48
LRKSHYFTY | -0.429 ± 0.58
SMLYFRNFRASLLPWAVDFT | -0.496 ± 1.7
AVHICYNYRSYSI | 0.5 ± 0.95
DSGLFSKVVMHDNPSSVDKL | -0.123 ± 0.64
TRWQITDPYSPCTWSCSWTQ | 0.906 ± 1
VCGRGKGDD | -0.107 ± 0.27
LMTLINPQFFSCSFLDDVSN | -0.362 ± 0.6
LGMKSVKWL | 0.345 ± 0.53
ILGMFSTICDGWADVMH | 0.525 ± 0.36
CTFTY | 0.053 ± 1.1
VNKLLS | -0.04 ± 0.28
LLKSKGGLPILRPCWLPFWQ | 0.066 ± 0.75
RGYSGTTTHAATATKLS | 1.56 ± 0.78
PMMMKIVKHDIVFSLEFHLI | inactive
SVSGLYQHRSF | 0.184 ± 0.35
KNLVWMDRVQFRLSWAHVRL | -1.38 ± 2.4
TRPLQYIQ | -0.045 ± 1.1
RSDNSCRRLLEDWRSWRRAV | inactive
SNNGCRIQRGVRNLAKGSTL | -1.09 ± 0.9
VFSMC | inactive

Substance | amyloid nucleation score
FMLWCQFKRDNIKRTDRLAV | 1.46 ± 0.78
NSSVGVESHIFSIVDKMNTW | inactive
SDSGCEGESCQNRLISVGLL | -0.084 ± 0.46
VVCRVNTSVMGFKSNCRLGV | 0.624 ± 0.6
LFWASVSSWYDGEGVGKPDV | 0.134 ± 0.47
VIDKDGVANGKVVLASHCVN | -0.766 ± 0.86
NNIFGLSIYKYCQGRYCNCS | 8.226 ± 0.055
NSRGT | -0.28 ± 0.34
NNMYTNVRVLKGRCLWVY | 0.376 ± 0.28
EMALKVVMWC | inactive
YFSTRKYTSKGYCVRTLFAY | -0.406 ± 0.27
IMARCIVFKPG | 0.136 ± 0.75
ENVAITMVLPSAKMGSYMDG | 0.453 ± 1.2
SVSRYDFEVGVMGHKCCITT | -0.359 ± 0.42
FRCGKGVVMSYELVNSIVGS | 0.407 ± 0.76
NDHNNLWVNFVGT | 0.575 ± 0.6
TWNAFRRLWVTSDGYTRVLT | 1.23 ± 0.41
QCIPLLAGSYCAQML | 0.914 ± 0.14
NYVYSSVVGLLIW | -0.077 ± 0.19
FMVLDQFIE | 0.383 ± 0.95
EILIYNNYETFLVSFFEYGG | 4.21 ± 0.083
VNIRRRTLFS | 0.023 ± 0.3
TQLSMWSVRIKISYWVSGGV | 0.804 ± 1.1
FVRIRYITGRITSDRRREFC | 0.591 ± 1
MWGARLRVWPGYERLSAFNH | -0.552 ± 0.44

Substance | amyloid nucleation score
ENTVDPLRLDWCSGTSVWYK | 0.54 ± 0.88
QVLVYNDFRYFEFHRDVFLR | 8.45 ± 0.073
VYQKWLG | -0.778 ± 0.46
GVVGVNSADLFNGKIVIKFS | 1.81 ± 0.2
APAAIINFLDPHICARMAMF | -0.513 ± 1.3
TYYNLYSVRGGCFAHDVLAC | 0.234 ± 0.31
DYFSRKPGNCFWFAIARDNT | -0.398 ± 1.2
STFIVGMRYVPLSKGR | -0.513 ± 1
DCCGFNFYWISPRFHLRECL | 0.831 ± 0.27
VPYVISINSMVWVGHRPVLP | 6.132 ± 0.057
LTVKCCDVSWVRFWYCIAGG | 6.618 ± 0.056
GNWAVGSIRDSCICGYIELR | 6.915 ± 0.046
TGLVLVGMSVSCVRYRCSND | 0.009 ± 0.39
AHPSNSYGRNNGVLASHRWD | -0.847 ± 0.41
LKTSRMFLG | -0.68 ± 0.39
KRPHGDH | 0.416 ± 0.73
GSSWYNNPVQGILGGYNL | -0.348 ± 0.47
WCLESINFRRMCMASSG | 0.893 ± 0.41
SSSVCASFAVWSCCASF | 4.52 ± 0.084
TNFDGYLFRFHIWRGCLVT | 0.188 ± 1
VAMILYGFTFWILRCNEWCR | 0.377 ± 0.24
LHRNSTPFIWHRRIEVSLGN | -0.201 ± 1.3
LYVMRKSDMMLDFRNAANVG | -0.142 ± 0.23
CVFMRATLQK | 3.25 ± 0.15
FLLLTSMNPLEWTYGRFWGV | -0.597 ± 0.72

Substance | amyloid nucleation score
NPVRMMRNRLVLGKNCAPRG | -0.024 ± 0.28
WFAFIWNNRKCNFRKGTRDV | 6.11 ± 0.075
DLRFSTRLGHCISVFMRKIW | inactive
SVSEGRVGLYNCG | 0.449 ± 0.89
MHGISQPWHKLTMTGIRLAW | -0.463 ± 0.51
TNSTISYFARFVVIWLGKIA | -0.488 ± 0.86
YKSSILPTEFGFACKPWGHL | 0.3 ± 0.55
LDSGQAPSMLLWGSNYWEKL | 0.808 ± 0.9
GFSSMGCSVRNSHTAHGGCG | 1.73 ± 0.17
KGLIKDNCNTSGGEFNCGY | -0.278 ± 0.21
LLCTYISTEAPIVTFLRLTY | -0.667 ± 0.44
SLAYCSFHMLKIPLRSGPTW | 0.01 ± 1.2
LFGKRCGHGQCQDHWKAVCV | -0.008 ± 0.61
TKWTGVFIWSLKAD | -0.051 ± 0.84
HYRYFCGLTYVDSAARLQGG | -1.5 ± 1.8
DSNFVTGWMTSIMLRVGVLR | 0.514 ± 1.2
VMTRNTCVQVGLEGTSQFAG | 0.435 ± 0.26
GYKMAYNFCDEKEGLNWRVG | -0.257 ± 0.52
RWMPFISLSVNLTGNYLIRL | 2.25 ± 0.27
TMNNFVLKSAFLKSAFTTGV | -1.04 ± 2.1
LMSWEL | 0.462 ± 1.2
NKNSGSRHHHVTYQLTPGER | inactive
LTEYFSSVVEYDGYPVLSE | -0.91 ± 1
NVGRSAICVRSCRMSLVFDG | 0.11 ± 0.35
NRCRDCREVYIKFPTWAWSW | -0.253 ± 0.43

Substance | amyloid nucleation score
AYCVH | 0.202 ± 0.59
IYSARFIGVRPNYYCMDARP | -0.85 ± 0.88
VELSRASNLCQDNIREHMQV | -0.32 ± 0.31
KLVIETSPCVRSHVSLVQKR | -0.277 ± 0.26
ISEGVIRDMSNRVRGSMQEI | -0.175 ± 1.2
QNFNFSWVYTFYTRICTLYF | 5.872 ± 0.047
TEVWCIQLY | 0.787 ± 0.46
SKRMNGRNP | 0.153 ± 0.47
HGRIGLVWESGKCMTYLREV | 0.191 ± 0.37
FSLRDISNISIWAYLNQPCR | -0.341 ± 0.32
VWRTEQ | -0.533 ± 0.66
YCAKNCEGFGRVYISG | -2.42 ± 2.7
HSLEDMKHRLGLGGWSSCKV | 0.183 ± 0.57
RSFDLRSSTTLERLFFHMCA | -0.493 ± 0.88
LSEYVKEAVVDPRLTFARIA | -0.764 ± 0.89
IFSGWCVRVFCSFLKHNCLN | -0.408 ± 0.47
AALENAGWLMAMANKRPSKR | -0.614 ± 0.64
RRYRSWGGV | -0.267 ± 0.35
HICTTFCTSMFSRTSQWSGG | 0.673 ± 0.3
CTLSYCWWMAQYPDISRLIT | -0.362 ± 0.74
VIAKRPSMWGSKRNFRLVRV | 0.512 ± 0.88
NWNFIRRSARVWSR | -1.7 ± 1.2
KVSVRYSNYSCVYFVYCRW | 0.279 ± 0.27
FIIITYFGLGKTVYARRKCC | -1.92 ± 2.7
RTPCLSESGPFSGFQHPGDI | -0.66 ± 1.2

Substance | amyloid nucleation score
TGLWNRIEVPVDKTEAKQPV | 0.076 ± 0.42
IGCLKFSFFHNLGFGSIDYR | -0.742 ± 0.53
FGLADITWKLPPQGSTWRLT | -0.108 ± 0.95
SGMCTYL | 0.513 ± 0.33
VGSSVPGCRAGVFGLLDRCI | -0.489 ± 1.7
PTFAADSEGHS | 0.085 ± 0.63
LYANNMLSGILCNGFSTITS | -0.339 ± 0.63
NYRIRAWGNNYGHQGATCLR | inactive
LLAVCYVIF | 1.98 ± 0.24
SFGKVPFDLPKNFPRVSSVT | -0.276 ± 0.33
VMVIMDS | 2.11 ± 0.21
HDSLKFVKQSFFCPEVYIPG | -0.596 ± 0.47
ESCVRYRSACSMFV | 0.902 ± 0.47
YIDEIY | -0.759 ± 0.35
TNCDVVNSCTFGGNGDY | 0.151 ± 1.1
DPADAPMITRNVGTWAKQVP | 0.324 ± 0.97
DLWWGRVRYG | 2.64 ± 0.097
VLRFGRWSYFVGVLPEKKRQ | -1.18 ± 2.4
CWTCTSRVEWSPV | -0.374 ± 0.74
KALVADC | 0.001 ± 0.34
YYNLTSGPFKGGCWQRYF | -0.205 ± 0.32
KAVRMSNFD | 0.223 ± 0.71
PNLPGSKDNLTDRF | 0.488 ± 1.2
LRKCSLAVPYGLRLVYLRKE | 0.14 ± 0.54
VSTCTL | inactive

Substance | amyloid nucleation score
WASTLEDVMRQEKVHLWMIG | -0.242 ± 0.3
CRTHDKCKDSGHSRLNGYSG | -0.299 ± 0.51
RLGRNVNEHRVPLVLACVED | 0.964 ± 0.93
VAMRIWLVNACLGG | 0.092 ± 0.63
EFSSKMSRMM | 0.268 ± 1.2
IELVNYFHYFRWVGLLDRRC | -0.077 ± 0.38
WCKILYAKQERWP | 0.677 ± 0.44
SSVCFVNRGSWPYSKVFNGC | -0.019 ± 0.37
QFRICVAPEFFGRKSLRASD | 0.445 ± 1.2
FTVVLYLSVVLKFKDAGEEG | 4.09 ± 0.092
VSNVRNSCLHLSARLYSTDL | -0.702 ± 0.91
GRFLHINS | inactive
SEMGINQKFLLGVQDTLHRY | -1.45 ± 1
IFRSFLDG | -0.437 ± 0.3
FLYPVHLVLHCSTSYMQTDS | 0.241 ± 1.2
SMVNNWIMDCLWAILWVIDI | inactive
LLLAY | -0.716 ± 0.44
RNNQSHGMNYFFESCVVFYC | 7.8 ± 0.047
RSHGKAEFEHVGLKFIAG | -0.903 ± 1.7
NLLFAVMLVFSRVQVVFNNG | -0.355 ± 0.25
VFTACVCGRVEDISDCVPAL | -0.071 ± 0.76
